The results in this text go back to patent US20240141059A1 (Bristol-Myers Squibb, published 2024).

The target in assay [1] is T1, human CD73 on cells (human, UniProt P21589 27-549).
T1 sequence (looked up): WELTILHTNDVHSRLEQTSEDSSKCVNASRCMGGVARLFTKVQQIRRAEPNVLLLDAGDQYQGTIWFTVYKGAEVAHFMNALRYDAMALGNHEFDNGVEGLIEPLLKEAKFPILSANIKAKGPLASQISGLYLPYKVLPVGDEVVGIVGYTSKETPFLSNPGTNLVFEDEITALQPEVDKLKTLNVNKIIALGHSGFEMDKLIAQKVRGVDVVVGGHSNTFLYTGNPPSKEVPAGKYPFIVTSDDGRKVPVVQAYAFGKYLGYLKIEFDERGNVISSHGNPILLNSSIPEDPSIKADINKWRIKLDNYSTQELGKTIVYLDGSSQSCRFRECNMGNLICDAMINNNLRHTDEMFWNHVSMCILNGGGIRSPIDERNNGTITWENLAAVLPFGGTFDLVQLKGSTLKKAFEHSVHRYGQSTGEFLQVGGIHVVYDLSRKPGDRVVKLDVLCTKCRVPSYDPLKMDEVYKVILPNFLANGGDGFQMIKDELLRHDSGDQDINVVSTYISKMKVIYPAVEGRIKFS
Put plainly: cell-based or functional assay.

Assay [2] deals with T2, hCD73-his (human, UniProt P21589 26-546).
T2 construct: range 26-546; also called full length extracellular domain of human-CD73
T2 sequence (looked up): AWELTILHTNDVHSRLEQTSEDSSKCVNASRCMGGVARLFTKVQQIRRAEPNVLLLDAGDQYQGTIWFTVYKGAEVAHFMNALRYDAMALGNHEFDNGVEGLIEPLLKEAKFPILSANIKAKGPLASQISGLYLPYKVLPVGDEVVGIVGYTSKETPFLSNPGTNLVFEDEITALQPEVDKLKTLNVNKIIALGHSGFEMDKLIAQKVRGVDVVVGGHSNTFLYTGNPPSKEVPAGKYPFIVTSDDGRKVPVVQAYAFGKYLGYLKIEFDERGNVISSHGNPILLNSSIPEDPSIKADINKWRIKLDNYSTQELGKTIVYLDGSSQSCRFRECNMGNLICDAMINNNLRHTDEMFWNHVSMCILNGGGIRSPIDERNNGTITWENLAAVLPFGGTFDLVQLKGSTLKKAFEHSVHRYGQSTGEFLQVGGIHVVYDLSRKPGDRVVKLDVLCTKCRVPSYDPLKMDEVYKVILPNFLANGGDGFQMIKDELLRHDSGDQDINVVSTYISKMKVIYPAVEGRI
Description: DLS, target:mAb 1:1, 2.5 uM + 2.5 uM; unit from the text. The procedure: (§1) The structure and oligomeric state of CD73/antibody complexes in solution were examined by SEC-MALS and DLS.
Dynamic light scattering (DLS) studies were performed on a Wyatt DynaPro® plate reader in 384 well plates at 25° C. Experimental parameters were 20 acquisitions of 5 s each per measurement, and measurements were recorded in quadruplicate, with the average and standard deviation reported. Intensity autocorrelation functions were fitted using the “Regularization” algorithm in the Dynamics® software (Wyatt Technologies®).

For assay [3], the target named is T2, hCD73-his. Description: SEC-MALS, target:mAb 1:1, 2.5 uM + 2.5 uM. As to the method:
as §1
(§2) The oligomeric state of CD73/antibody complexes were examined by size-exclusion chromatography coupled to an in-line multi-angle light scattering detector (SEC-MALS). Isocratic separations were performed on a Shodex PROTEIN KW-803 column connected to an Prominence Shimadzu UFLC in buffer containing 200 mM K₂HPO₄, 150 mM NaCl, pH 6.8, containing 0.02% Na azide (0.1 μm filtered) running at 0.5 mL/min. Samples were injected onto the column using a SIL-20AC Prominence Shimadzu® autosampler, and data were obtained from three online detectors connected in series: a Prominence SPD-20AD diode array UV/vis spectrophotometer followed by a Wyatt miniDAWN™ TREOS Multi-Angle Light Scattering Detector then a Wyatt Optilab T-rEX Refractive Index Detector® instrument. Data were collected and analyzed using Astra® (Wyatt) and Labsolutions® (Shimadzu) software.
On the technique in general: Size exclusion chromatography separates by hydrodynamic size, large species first.

For assay [4], the target named is T1, human CD73 on cells. Put plainly: cell-based or functional assay. The source holds these as a separate data set.
In assay [5] the target is T1, human CD73 on cells. Description: cell-based or functional assay. This is another data set of the same source.
In assay [6] the target is T2, hCD73-his. Description: SEC of equimolar mAb + hCD73-his. As to the method:
as §2
CD73.4 antibodies having the heavy chain constant regions set forth in Table 14 were also tested for formation of high molecular weight complexes by SEC-MALS and DLS experiments, as described in Example 3.

In a further assay the target is T3, N-hCD73-his (human, UniProt P21589 26-336, limits assumed).
T3 construct: monomeric in solution by SEC-MALS; also called N-terminal domain of hCD73
T3 sequence (looked up): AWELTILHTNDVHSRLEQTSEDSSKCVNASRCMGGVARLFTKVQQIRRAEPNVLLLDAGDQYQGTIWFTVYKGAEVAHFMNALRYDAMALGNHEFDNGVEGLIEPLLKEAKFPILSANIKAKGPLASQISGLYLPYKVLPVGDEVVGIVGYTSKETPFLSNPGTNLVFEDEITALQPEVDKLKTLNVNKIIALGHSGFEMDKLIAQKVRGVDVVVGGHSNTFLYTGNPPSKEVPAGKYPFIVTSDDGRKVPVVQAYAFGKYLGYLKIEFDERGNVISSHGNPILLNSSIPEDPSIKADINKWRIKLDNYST
Put plainly: SPR, mAb captured on protein A. The procedure: The affinity of the antibodies for human CD73 was measured to determine whether the change of the constant region affects them. The affinities were determined by Surface Plasmon Resonance (SPR) as follows. […] For these experiments, protein A (Pierce) was immobilized to a density of 3000-4000 RU on flow cells 1˜4 of a CMS sensor chip (GE Healthcare) using standard ethyl(dimethylaminopropyl) carbodiimide (EDC)/N-hydroxysuccinimide (NHS) chemistry, with ethanolamine blocking, in a running buffer of 0.01 M HEPES pH 7.4, 0.15 M NaCl, 3 mM EDTA, 0.005% v/v tween 20. […] The running buffer for the kinetic experiments was 10 mM sodium phosphate, 130 mM sodium chloride, 0.05% tween 20, pH 7.1. The surfaces were regenerated after each cycle using two 30 s pulses of 10 mM glycine pH 1.5 at a flow rate of 30 μl/min. Sensogram data was double-referenced and then fitted to a 1:1 Langmuir model using Biacore® T100 evaluation software v2.0.4, to determine the association rate constant (ka), the dissociation rate constant (kd), and the equilibrium dissociation constant (KD).

Assay [7] deals with T1, human CD73 on cells. Put plainly: cell-based or functional assay. This is another data set of the same source.
The next assay deals with T4, human GITR (human, UniProt Q9Y5U5 26-241).
T4 sequence (looked up): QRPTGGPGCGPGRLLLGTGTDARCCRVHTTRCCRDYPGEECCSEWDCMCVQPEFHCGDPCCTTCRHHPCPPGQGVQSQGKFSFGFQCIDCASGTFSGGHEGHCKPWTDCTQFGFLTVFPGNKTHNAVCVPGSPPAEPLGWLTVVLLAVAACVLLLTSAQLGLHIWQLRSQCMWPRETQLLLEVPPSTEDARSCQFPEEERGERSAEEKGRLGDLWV
Put plainly: cell-based or functional assay.

Several values for one entry are separate records, joined by “and”; a condition that tells them apart may be missing. Equal values may be shown once. Read-outs that look alike come from different tables or passages of the source.

In general, Kd refers to the concentration at which binding is half-saturated. Lower therefore signals tighter binding. For orientation: koff means a measure of how fast the partners let go of each other. A lower koff goes with a long-lived complex. The kon is the second-order rate constant of association. Low values mean slow association, high ones fast association.

B1: CD73.4-IgG2-C219S-IgG1.1f (antibody)
heavy: QVQLVESGGGVVQPGRSLRLSCAASGFTFSNYGMHWVRQAPGKGLEWVAVILYDGSNKYYPDSVKGRFTISRDNSKNTLYLQMNSLRAEDTAVYYCARGGSSWYPDSFDIWGQGTMVTVSSASTKGPSVFPLAPCSRSTSESTAALGCLVKDYFPEPVTVSWNSGALTSGVHTFPAVLQSSGLYSLSSVVTVPSSNFGTQTYTCNVDHKPSNTKVDKTVERKSCVECPPCPAPPVAGPSVFLFPPKPKDTLMISRTPEVTCVVVDVSHEDPEVKFNWYVDGVEVHNAKTKPREEQYNSTYRVVSVLTVLHQDWLNGKEYKCKVSNKALPSSIEKTISKAKGQPREPQVYTLPPSREEMTKNQVSLTCLVKGFYPSDIAVEWESNGQPENNYKTTPPVLDSDGSFFLYSKLTVDKSRWQQGNVFSCSVMHEALHNHYTQKSLSLSPGK
light: not shown
notes: also called CD73.4-IgG2.3G1.1f-KH; CD73.4-IgG2CS-IgG1.1f
Take B1: in the assay with human CD73 on cells [1], the “internalization T1/2, Calu6” value is 34 min; the “internalization T1/2, NCI-H292” value turned out to be 15.8 min; the “internalization Ymax, Calu6” value stood at 76.8%; the “internalization Ymax, NCI-H292” value turned out to be 77.6%. Besides, the Rh in the assay with hCD73-his [2] worked out at 31.2 nm. Further, in the assay with hCD73-his [3], the “MW Peak 1” value came out at 3600 kDa, the “MW Peak 2” value came to 1100 kDa and the “MW Peak 3” value is 580 kDa. In the assay with human CD73 on cells [4], the “internalization T1/2, Calu6” value turned out to be 21 min; the “internalization T1/2, NCI-H292” value was determined as 16.6 min; the “internalization Ymax, Calu6” value is 81%; the “internalization Ymax, NCI-H292” value worked out at 90.3%.

B2: CD73.4-IgG2-C219S (antibody)
heavy: QVQLVESGGGVVQPGRSLRLSCAASGFTFSNYGMHWVRQAPGKGLEWVAVILYDGSNKYYPDSVKGRFTISRDNSKNTLYLQMNSLRAEDTAVYYCARGGSSWYPDSFDIWGQGTMVTVSSASTKGPSVFPLAPCSRSTSESTAALGCLVKDYFPEPVTVSWNSGALTSGVHTFPAVLQSSGLYSLSSVVTVPSSNFGTQTYTCNVDHKPSNTKVDKTVERKSCVECPPCPAPPVAGPSVFLFPPKPKDTLMISRTPEVTCVVVDVSHEDPEVQFNWYVDGVEVHNAKTKPREEQFNSTFRVVSVLTVVHQDWLNGKEYKCKVSNKGLPAPIEKTISKTKGQPREPQVYTLPPSREEMTKNQVSLTCLVKGFYPSDIAVEWESNGQPENNYKTTPPMLDSDGSFFLYSKLTVDKSRWQQGNVFSCSVMHEALHNHYTQKSLSLSPG
light: not shown
notes: also called CD73.4-IgG2CS; CD73.4-IgG2.3
On to B2, for which, in the assay with human CD73 on cells [1], the “internalization T1/2, Calu6” value turned out to be 36 min; the “internalization T1/2, NCI-H292” value was found to be 16.6 min; the “internalization Ymax, Calu6” value came to 75.6%; the “internalization Ymax, NCI-H292” value was found to be 78.4%. For the same molecule, in the assay with human CD73 on cells [5], the “% internalization, Calu6 cells” value worked out at 88%; the “% internalization, H228 cells” value was 94%; the “% internalization, H2030 cells” value stood at 89%; the “% internalization, HCC15 cells” value is 94%. For the same molecule, in the assay with human CD73 on cells [5], the “internalization T1/2, Calu6 cells” value came out at 6.5 min; the “internalization T1/2, H228 cells” value worked out at 13.8 min; the “internalization T1/2, H2030 cells” value stood at 3.7 min; the “internalization T1/2, HCC15 cells” value is 3.1 min. Also, in the assay with hCD73-his [3], the “MW Peak 1” value was found to be 3400 kDa, the “MW Peak 2” value worked out at 970 kDa and the “MW Peak 3” value worked out at 480 kDa. In the assay with hCD73-his [6], the “UV % Peak1 (<12.9 min)” value amounted to 37%, the “UV % Peak3 (15.1-16.7 min)” value was 7.7%, the “UV % Peak4 (16.7-19.3 min)” value is 28.6% and the “UV % Peak5 (>19.3 min)” value is 2.9%.

B3: 11F11 (antibody, human IgG2, kappa, V domains shown)
VH: QVQLVESGGGVVQPGRSLRLSCATSGFTFSNYGMHWVRQAPGKGLEWVAVILYDGSNKYYPDSVKGRFTISRDNSKNTLYLQMNSLRAEDTAVYYCARGGSSWYPDSFDIWGQGTMVTVSS
VL: DIQMTQSPSSLSASVGDRVTITCRASQGISSWLAWYQQKPEKAPKSLIYAASSLQSGVPSRFSGSGSGTDFTLTISSLQPEDFATYYCQQYNSYPLTFGGGTKVEIKR
notes: hybridoma derived anti-CD73 antibody, IgG2 constant region; also called 11F11 (IgG2)
Take B3: in the assay with N-hCD73-his, the Kd is 1.6 nM and 0.56 nM; the dissociation rate constant (koff) was 0.00042 s⁻¹ and 0.00016 s⁻¹; the kon is 260000 M⁻¹ s⁻¹ and 290000 M⁻¹ s⁻¹. In addition, in the assay with human CD73 on cells [7], the “internalization EC50, Calu6 cells, 2 h” value was determined as 0.58 nM and the “internalization Ymax (% of 100 nM 11F11), Calu6 cells” value came to 98%.

B4: GITR.6.G2 (antibody, human IgG2, kappa)
heavy: QVQLVESGGGVVQPGRSLRLSCAASGFTFSSYGMHWVRQAPGKGLEWVAVIWYEGSNKYYADSVKGRFTISRDNSKNTLYLQMNSLRAEDTAVYYCARGGSMVRGDYYYGMDVWGQGTTVTVSSASTKGPSVFPLAPCSRSTSESTAALGCLVKDYFPEPVTVSWNSGALTSGVHTFPAVLQSSGLYSLSSVVTVPSSNFGTQTYTCNVDHKPSNTKVDKTVERKCCVECPPCPAPPVAGPSVFLFPPKPKDTLMISRTPEVTCVVVDVSHEDPEVQFNWYVDGVEVHNAKTKPREEQFNSTFRVVSVLTVVHQDWLNGKEYKCKVSNKGLPAPIEKTISKTKGQPREPQVYTLPPSREEMTKNQVSLTCLVKGFYPSDIAVEWESNGQPENNYKTTPPMLDSDGSFFLYSKLTVDKSRWQQGNVFSCSVMHEALHNHYTQKSLSLSPGK
light: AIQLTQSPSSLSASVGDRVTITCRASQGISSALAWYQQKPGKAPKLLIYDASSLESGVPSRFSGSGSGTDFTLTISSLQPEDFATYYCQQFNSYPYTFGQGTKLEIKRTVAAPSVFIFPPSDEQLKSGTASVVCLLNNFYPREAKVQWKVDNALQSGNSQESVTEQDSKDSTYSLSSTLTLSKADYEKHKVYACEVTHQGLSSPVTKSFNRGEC
With B4, in the assay with human GITR, the “NFKB signaling (phospho-p65), CD4+ T cells, EC50” value turned out to be 12.8 nM; the “NFKB signaling (phospho-p65), CD4+ T cells, Emax” value came out at 69%; the “NFKB signaling (phospho-p65), CD8+ T cells, EC50” value was 9 nM; the “NFKB signaling (phospho-p65), CD8+ T cells, Emax” value was determined as 85%.
